Measurements: patent US20090155164A1 (Amgen, published 2009)
Values belong to the binder of their own block, whether it stands above or below them.

Key:
[1] = biological target: T1, avidin-c-fms Ig-like 1 domain fusion protein (chicken; human, UniProt P07333 20-126); experiment: FACS, biotin beads coated with the avidin fusion protein, FITC-1.109 without competitor
T1 construct: Joined through an XhoI site; Captured on biotin beads; also called Ig1 construct; Ig-like loop 1 (IPVI-ALLP); not shown: chicken avidin, N-terminal fusion partner from pCEP4-Avidin(N)

[2] = biological target: T2, avidin-c-fms Ig-like 1-2 domain fusion protein (chicken; human, UniProt P07333 20-223); experiment: FACS, biotin beads loaded with the avidin fusion protein, FITC-labeled antibody; Neg CM value of this antibody 4.22
T2 construct: Captured on biotin beads; also called Ig1-2 construct; Ig-like loops 1 and 2 (IPVI-AQIV); not shown: chicken avidin, N-terminal fusion partner from pCEP4-Avidin(N)
Method: (§1) The concentration of each c-fms avidin fusion protein was determined using a quantitative FACS based assay. The c-fms avidin fusion proteins were captured on 6.7 μm biotin polystyrene beads (Spherotech, Inc., Libertyville Ill.). 1× conditioned media (20 and 200 μl) were added to 5 μl (˜3.5×10⁵) beads, and incubated for 1 hr at room temperature with rotation. Conditioned media was removed by centrifugation and samples were washed with PBS containing 0.5% BSA (BPBS). The avidin beads were stained with 200 μl of a 0.5 μg/ml solution of a goat FITC-labeled anti-avidin antibody (Vector Labs, Burlingame, Calif.) in BPBS for 45 minutes at room temperature covered by foil. Following incubation, the beads were recollected by centrifugation, washed with BPBS, and resuspended for analysis in 0.5 ml BPBS. The FITC fluorescence was detected using a FACScan (Becton Dickinson Bioscience, Franklin Lakes, N.J.). The signal was converted to protein mass using a standard curve derived with rAvidin. For epitope mapping, biotin beads were loaded with ˜100 ng of c-fms avidin fusion protein per 3.5×10⁵ beads and brought up to volume with growth medium.
(§2) After incubation for 1 hr at room temperature, 3 ml washing buffer (BPBS) was added and the antibody-beads complexes were collected by centrifugation for 5 min at 750×g. The pellet was washed in 3 ml of BPBS. The antibody bound to avidin-bead complexes was detected by FACS (Becton Dickinson) analysis. The mean (X) fluorescent intensity was recorded for each sample.

[3] = biological target: T3, avidin-c-fms Ig-like 1-5 domain fusion protein (full extracellular domain) (chicken; human, UniProt P07333 20-512); experiment: as above
T3 construct: Captured on biotin beads; also called c-fms ECD Ig1-5 construct; human c-fms ECD; not shown: chicken avidin, N-terminal fusion partner from pCEP4-Avidin(N)
Method: as §1, §2

[4] = biological target: T4, avidin-c-fms Ig-like 1-4 domain fusion protein (chicken; human, UniProt P07333 20-418); experiment: as above
T4 construct: Captured on biotin beads; also called Ig-like loops 1-4 (IPVI-GTLL); not shown: chicken avidin, N-terminal fusion partner from pCEP4-Avidin(N)
Method: as §1, §2

[5] = biological target: T1, avidin-c-fms Ig-like 1 domain fusion …; experiment: as above
Method: as §1, §2

[6] = biological target: T2, avidin-c-fms Ig-like 1-2 domain fusion …; experiment: FACS, biotin beads loaded with the avidin fusion protein, FITC-labeled antibody; Neg CM value of this antibody 3.32
Method: as §1, §2

[7] = biological target: T3, avidin-c-fms Ig-like 1-5 domain fusion …; experiment: as above
Method: as §1, §2

[8] = biological target: T4, avidin-c-fms Ig-like 1-4 domain fusion …; experiment: as above
Method: as §1, §2

[9] = biological target: T1, avidin-c-fms Ig-like 1 domain fusion …; experiment: as above
Method: as §1, §2

[10] = biological target: T1, avidin-c-fms Ig-like 1 domain fusion …; experiment: FACS, biotin beads coated with the avidin fusion protein, FITC-2.36 without competitor
[11] = biological target: T1, avidin-c-fms Ig-like 1 domain fusion …; experiment: FACS, biotin beads coated with the avidin fusion protein, FITC-1.2 without competitor
[12] = biological target: T2, avidin-c-fms Ig-like 1-2 domain fusion …; experiment: FACS, biotin beads loaded with the avidin fusion protein, FITC-labeled antibody; Neg CM value of this antibody 4.74
Method: as §1, §2

[13] = biological target: T3, avidin-c-fms Ig-like 1-5 domain fusion …; experiment: as above
Method: as §1, §2

[14] = biological target: T4, avidin-c-fms Ig-like 1-4 domain fusion …; experiment: as above
Method: as §1, §2

[15] = biological target: T1, avidin-c-fms Ig-like 1 domain fusion …; experiment: as above
Method: as §1, §2

T2 sequence (P07333 20-223 limits assumed): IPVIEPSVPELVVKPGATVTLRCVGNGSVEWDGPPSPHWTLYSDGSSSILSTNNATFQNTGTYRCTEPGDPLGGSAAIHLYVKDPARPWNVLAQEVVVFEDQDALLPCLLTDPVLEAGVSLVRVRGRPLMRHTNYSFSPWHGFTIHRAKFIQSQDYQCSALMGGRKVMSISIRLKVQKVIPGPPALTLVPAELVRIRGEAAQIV
T4 sequence (P07333 20-418 limits assumed): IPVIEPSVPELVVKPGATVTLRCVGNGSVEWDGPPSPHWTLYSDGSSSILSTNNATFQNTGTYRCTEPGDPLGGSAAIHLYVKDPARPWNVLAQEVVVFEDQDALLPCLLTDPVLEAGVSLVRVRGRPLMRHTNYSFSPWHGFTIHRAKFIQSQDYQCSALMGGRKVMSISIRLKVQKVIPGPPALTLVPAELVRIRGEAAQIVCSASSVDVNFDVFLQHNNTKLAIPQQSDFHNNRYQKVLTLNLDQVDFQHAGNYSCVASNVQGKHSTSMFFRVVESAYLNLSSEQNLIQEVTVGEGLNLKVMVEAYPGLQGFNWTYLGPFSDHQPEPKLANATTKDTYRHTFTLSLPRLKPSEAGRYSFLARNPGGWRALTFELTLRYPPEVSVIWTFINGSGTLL
T1 sequence (P07333 20-126 limits assumed): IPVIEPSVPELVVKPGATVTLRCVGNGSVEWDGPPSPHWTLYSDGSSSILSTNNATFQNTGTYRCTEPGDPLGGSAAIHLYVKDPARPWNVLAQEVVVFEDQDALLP
T3 sequence (P07333 20-512 limits assumed): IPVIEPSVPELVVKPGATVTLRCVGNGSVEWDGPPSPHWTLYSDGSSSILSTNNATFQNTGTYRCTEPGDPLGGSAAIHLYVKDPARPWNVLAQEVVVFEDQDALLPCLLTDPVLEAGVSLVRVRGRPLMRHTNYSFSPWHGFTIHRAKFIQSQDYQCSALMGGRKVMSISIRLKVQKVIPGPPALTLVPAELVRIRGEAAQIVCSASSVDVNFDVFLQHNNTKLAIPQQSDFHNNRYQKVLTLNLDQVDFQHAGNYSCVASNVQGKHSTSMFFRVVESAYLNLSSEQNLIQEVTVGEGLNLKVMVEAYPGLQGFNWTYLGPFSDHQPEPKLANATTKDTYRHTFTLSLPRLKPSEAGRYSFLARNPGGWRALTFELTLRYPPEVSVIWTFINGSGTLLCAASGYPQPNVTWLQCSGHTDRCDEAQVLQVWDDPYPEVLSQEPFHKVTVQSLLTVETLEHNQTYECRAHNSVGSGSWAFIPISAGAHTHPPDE

- binding result [1]: no binding (tested: 1 µg/ml)
- MFI [2]: 232
- MFI [3]: 668
- MFI [4]: 215
- MFI [5]: 2.93
B1: anti-c-fms IgG2 clone 1.109 (parent form, PT) (antibody, V domains shown)
VH: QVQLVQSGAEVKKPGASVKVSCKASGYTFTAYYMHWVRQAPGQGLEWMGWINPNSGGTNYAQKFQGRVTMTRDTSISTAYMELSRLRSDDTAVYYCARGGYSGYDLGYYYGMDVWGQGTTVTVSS
VL: DIQMTQSPSSLSASVGDRVTITCQASQNISNFLDWYQQKPGKAPNLLIYDASDLDPGVPSRFSGSGSGTDFTFTISSLQPEDIATYYCQQYVSLPLTFGGGTKVEIKR
modifications: N-linked glycosylation site at Asn-28 in CDR1, reported as likely occupied; N-terminal glutamine cyclized to pyroglutamic acid; C-terminal lysine absent
notes: Recombinant human IgG2 kappa from COS/PKB cells (hybridoma was IgG1)

- MFI [6]: 12
- MFI [7]: 15.4
- MFI [8]: 10.4
- MFI [9]: 2.85
- binding result [10]: no binding (tested: 1 µg/ml)
B2: anti-c-fms IgG2 clone 2.360 (parent form, PT) (antibody, V domains shown)
VH: QVQLVQSGAEVKKPGASVKVSCKVSGYTLTELSMHWVRQAPGKGLEWMGGFDPEDGETIYAQKFQGRVTMTEDTSTDTVYMELSSLRSEDTAVYYCATGVMITFGGVIVGHSYYGMDVWGQGTTVTVSS
VL: DIQMTQSPSSLSASVGDRVTITCRASQGINNYLAWYQQKPGKVPQLLIYVASTLQSGVPSRFSGSGSGTDFTLTISSLQPEDVATYYCQKYNSGPFTFGPGTKVDIKR
modifications: N-terminal glutamine cyclized to pyroglutamic acid; C-terminal lysine absent
notes: Recombinant human IgG2 kappa from COS/PKB cells

- binding result [11]: no binding (tested: 1 µg/ml)
- MFI [12]: 148
- MFI [13]: 342
- MFI [14]: 134
- MFI [15]: 2.89
B3: anti-c-fms IgG2 clone 1.2 (parent form, PT) (antibody, V domains shown)
VH: QVQLVQSGAEVKKPGASVKVSCKASGYTFTSYGISWVRQAPGQGLEWMGWISAYNGNTNYAQKLQGRVTMTTDTSTSTAYMELRSLRSDDTAVYYCARESWFGEVFFDYWGQGTLVTVSS
VL: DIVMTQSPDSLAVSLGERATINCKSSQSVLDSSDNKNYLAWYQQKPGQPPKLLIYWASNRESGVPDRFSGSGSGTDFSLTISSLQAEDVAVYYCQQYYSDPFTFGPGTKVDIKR
modifications: N-terminal glutamine cyclized to pyroglutamic acid; C-terminal lysine absent
notes: Recombinant human IgG2 kappa from COS/PKB cells (hybridoma was IgG1); also called 1.2.1; Clone 1.2 PT
